Test results reported in patent US20120316071A1 (published 2012).

T1: rHuman Erythropoietin R/Fc Chimera, CF (R&D Systems Cat#963-ER) (human, UniProt P19235 25-250)
T1 construct: Bought recombinant protein; also called EPO R; Epo R; Fc part of the bought chimera not given
T1 sequence (looked up): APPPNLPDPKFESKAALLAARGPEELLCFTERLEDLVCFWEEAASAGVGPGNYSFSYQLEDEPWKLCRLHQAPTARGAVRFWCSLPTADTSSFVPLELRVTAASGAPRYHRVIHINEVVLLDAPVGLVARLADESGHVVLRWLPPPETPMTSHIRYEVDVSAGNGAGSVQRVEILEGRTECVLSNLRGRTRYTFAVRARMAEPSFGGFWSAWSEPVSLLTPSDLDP

T2: rHuman Erythropoietin R/Fc Chimera, CF (R&D Systems Cat#963-ER) (human, UniProt P19235 25-250)
T2 construct: Bought reagent; also called EPO R; EPO R/Fc; Fc part of the bought chimera not given
T2 sequence (looked up): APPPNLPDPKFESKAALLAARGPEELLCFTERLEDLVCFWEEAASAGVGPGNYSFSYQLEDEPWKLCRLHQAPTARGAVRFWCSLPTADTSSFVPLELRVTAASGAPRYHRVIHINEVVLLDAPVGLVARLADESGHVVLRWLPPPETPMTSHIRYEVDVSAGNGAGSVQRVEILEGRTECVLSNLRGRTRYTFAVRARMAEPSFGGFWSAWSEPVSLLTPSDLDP


What was measured:
[1] = target: T3, rHuman ErbB2/Fc Chimera, CF (R&D Systems Cat#1129-ER) (human, UniProt P04626 23-652); assay: ECL multispot (MSD) binding assay, antigens spotted on plate, 20 nM Fab;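 further: fab incubated 1 h at 20 °C on antigen-spotted wells, bound Fab detected by TAG-labelled antibody, ratio of 4 or more over blank counted as a hit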
T3 construct: Bought recombinant protein; also called human epidermal growth factor 2 receptor; Fc part of the bought chimera not given

[2] = target: T4, rHuman EGF R/Fc Chimera, CF (R&D Systems Cat#344-ER) (human, UniProt P00533 25-645); assay: as above
T4 construct: Bought recombinant protein; also called epidermal growth factor receptor; Fc part of the bought chimera not given

[3] = target: T5, rHuman CD44/Fc Chimera, CF (R&D Systems Cat#3660-CD) (human, UniProt P16070 21-220); assay: as above
T5 construct: Bought recombinant protein; Fc part of the bought chimera not given

[4] = target: T6, rHuman IGF-1 sR, (IGF-1 sR), CF (R&D Systems Cat#391-GR) (human, UniProt P08069 31-932); assay: as above
T6 construct: Bought recombinant soluble receptor; The column head prints only 'IGF-1'; also called insulin-like growth factor-1 soluble receptor

[5] = target: T7, rHuman P-Cadherin/Fc Chimera, CF (R&D Systems Cat#861-PC) (human, UniProt P22223 108-654); assay: as above
T7 construct: Bought recombinant protein; Fc part of the bought chimera not given

[6] = target: T1, rHuman Erythropoietin R/Fc Chimera, CF …; assay: as above
[7] = target: T8, Recombinant Human DLL4 (R&D Systems Cat#1506-D4/CF) (human, UniProt Q9NR61 27-524); assay: as above
T8 construct: Bought recombinant protein; also called delta-like protein 4; rHuman DLL4

[8] = target: T9, rHuman ErbB2/Fc Chimera, CF (R&D Systems Cat#1129-ER) (human, UniProt P04626 23-652); assay: ECL (MSD) multispot binding assay, antigen spotted on plate, 20 nM Fab;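 further: purified Fab incubated 1 h at 20 °C on antigen-spotted plate, bound Fab revealed with TAG detection antibody, ECL read, antigen signal divided by same-well blank, ratio ≥4 counted as hit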
T9 construct: Bought reagent; also called human epidermal growth factor 2 receptor; Fc part of the bought chimera not given

[9] = target: T10, rHuman EGF R/Fc Chimera, CF (R&D Systems Cat#344-ER) (human, UniProt P00533 25-645); assay: as above
T10 construct: Bought reagent; also called epidermal growth factor receptor; Fc part of the bought chimera not given

[10] = target: T11, rHuman Notch-1/Fc Chimera, CF (R&D Systems Cat#3647-TK) (human, UniProt P46531 19-526); assay: as above
T11 construct: Bought reagent; Fc part of the bought chimera not given

[11] = target: T12, rHuman CD44/Fc Chimera, CF (R&D Systems Cat#3660-CD) (human, UniProt P16070 21-220); assay: as above
T12 construct: Bought reagent; Fc part of the bought chimera not given

[12] = target: T13, rHuman IGF-1 sR, CF (R&D Systems Cat#391-GR) (human, UniProt P08069 31-932); assay: as above
T13 construct: Bought soluble receptor; also called insulin-like growth factor-1 soluble receptor

[13] = target: T14, rHuman P-Cadherin/Fc Chimera, CF (R&D Systems Cat#861-PC) (human, UniProt P22223 108-654); assay: as above
T14 construct: Bought reagent; Fc part of the bought chimera not given

[14] = target: T2, rHuman Erythropoietin R/Fc Chimera, CF …; assay: as above
[15] = target: T15, Recombinant Human DLL4 (R&D Systems Cat#1506-D4/CF) (human, UniProt Q9NR61 27-524); assay: as above
T15 construct: Bought recombinant protein; also called delta-like protein 4; rHuman DLL4

[16] = target: T16, rHuman ErbB2/Fc Chimera, CF (R&D Systems Cat#1129-ER) (human, UniProt P04626 23-652); assay: as above
T16 construct: Bought recombinant protein; also called human epidermal growth factor 2 receptor; Fc part of the bought chimera not given

[17] = target: T17, rHuman EGF R/Fc Chimera, CF (R&D Systems Cat#344-ER) (human, UniProt P00533 25-645); assay: as above
T17 construct: Bought recombinant protein; also called epidermal growth factor receptor; Fc part of the bought chimera not given

[18] = target: T18, rHuman IGF-1 sR, (IGF-1 sR), CF (R&D Systems Cat#391-GR) (human, UniProt P08069 31-932); assay: as above
T18 construct: Bought recombinant soluble receptor; also called insulin-like growth factor-1 soluble receptor

[19] = target: T19, rHuman P-Cadherin/Fc Chimera, CF (R&D Systems Cat#861-PC) (human, UniProt P22223 108-654); assay: as above
T19 construct: Bought recombinant protein; Fc part of the bought chimera not given

[20] = target: T20, Recombinant Human DLL4 (R&D Systems Cat#1506-D4/CF) (human, UniProt Q9NR61 27-524); assay: as above; remark: listed apart in the source
T20 construct: Bought recombinant protein; also called delta-like protein 4; rHuman DLL4

[21] = target: T21, Recombinant Human DLL4 (R&D Systems Cat#1506-D4/CF) (human, UniProt Q9NR61 27-529); assay: 96-well plate ECL (MSD) assay, DLL4 coated on plate, Fab at 0.04 µM; ECL signal on DLL4 over signal on blank well
T21 construct: Bought recombinant protein; also called rHuman DLL4; delta-like protein 4

Binder	ECL multispot value [8]	ECL multispot value [9]	ECL multispot value [10]	ECL multispot value [11]	ECL multispot value [12]	ECL multispot value [13]	ECL multispot value [14]	ECL multispot value [15]	further results
Fab VH3-23_IGHD2-21*01>3_IGHJ6*01 H100E/S108P/Y113G Y110I & V2-13_IGLJ2*01 (Fab, V domains shown, Tested as Fab made in E. coli: VH joined to CH1 (His and Flag tags), VL joined to lambda CL; also called EPG Y110I) VH: not shown VL: SSELTQDPAVSVALGQTVRITCQGDSLRSYYASWYQQKPGQAPVLVIYGKNNRPSGIPDRFSGSSSGNTASLTITGAQAEDEADYYCNSRDSSGNHLVVFGGGTKLTVL	–	–	–	–	–	–	–	–	ECL multispot signal (ratio to blank; column not labelled) [1]: 11.4; ECL multispot signal (ratio to blank; column not labelled) [2]: 8.6; ECL multispot signal (ratio to blank; column not labelled) [3]: 1.7; ECL multispot signal (ratio to blank; column not labelled) [4]: 1.4; ECL multispot signal (ratio to blank; column not labelled) [5]: 39; ECL multispot signal (ratio to blank; column not labelled) [6]: 73.7; ECL multispot signal (ratio to blank; column not labelled) [7]: 2
Fab VH3-23_IGHD2-21*01>3_IGHJ6*01 H100E/S108P/Y113G Y114I & V2-13_IGLJ2*01 (Fab, V domains shown, Tested as Fab made in E. coli (VH-CH1 with His and Flag tags; lambda CL); also called EPG Y114I) VH: not shown VL: SSELTQDPAVSVALGQTVRITCQGDSLRSYYASWYQQKPGQAPVLVIYGKNNRPSGIPDRFSGSSSGNTASLTITGAQAEDEADYYCNSRDSSGNHLVVFGGGTKLTVL	11.4	7.1	2.6	1.8	1.4	22.6	162	2.4	–
Fab VH3-23_IGHD2-21*01>3_IGHJ6*01 H100E/S108P/Y113G Y112G & V2-13_IGLJ2*01 (Fab, V domains shown, Tested as Fab made in E. coli (VH-CH1 with His and Flag tags; lambda CL); also called EPG Y112G) VH: not shown VL: SSELTQDPAVSVALGQTVRITCQGDSLRSYYASWYQQKPGQAPVLVIYGKNNRPSGIPDRFSGSSSGNTASLTITGAQAEDEADYYCNSRDSSGNHLVVFGGGTKLTVL	1.4	1.7	2.1	1.2	1	2.3	7.9	1.3	–
Fab VH3-23_IGHD2-21*01>3_IGHJ6*01 H100E/S108P/Y113G Y114N & V2-13_IGLJ2*01 (Fab, V domains shown, Tested as Fab made in E. coli (VH-CH1 with His and Flag tags; lambda CL); also called EPG Y114N) VH: not shown VL: SSELTQDPAVSVALGQTVRITCQGDSLRSYYASWYQQKPGQAPVLVIYGKNNRPSGIPDRFSGSSSGNTASLTITGAQAEDEADYYCNSRDSSGNHLVVFGGGTKLTVL	–	2.6	2	1.2	1.2	5.9	35	1.6	–
Fab VH3-23_IGHD2-21*01>3_IGHJ6*01 H100E/S108P/Y113G Y114S & V2-13_IGLJ2*01 (Fab, V domains shown, Tested as Fab made in E. coli (VH-CH1 with His and Flag tags; lambda CL); also called EPG Y114S) VH: not shown VL: SSELTQDPAVSVALGQTVRITCQGDSLRSYYASWYQQKPGQAPVLVIYGKNNRPSGIPDRFSGSSSGNTASLTITGAQAEDEADYYCNSRDSSGNHLVVFGGGTKLTVL	8.7	5	2.9	1.4	1.3	15.8	68.5	2.2	–
Fab VH3-23_IGHD2-21*01>3_IGHJ6*01 H100E/S108P/Y113G/Y111W & V2-13_IGLJ2*01 (Fab, V domains shown, Fab made in E. coli: VH joined to CH1 (with His and Flag tags, plasmid A) and VL to lambda CL (plasmid E); also called EPG Y111W) VH: not shown VL: SSELTQDPAVSVALGQTVRITCQGDSLRSYYASWYQQKPGQAPVLVIYGKNNRPSGIPDRFSGSSSGNTASLTITGAQAEDEADYYCNSRDSSGNHLVVFGGGTKLTVL	–	–	–	–	–	–	–	–	ECL signal/blank ratio [16]: 26.5; ECL signal/blank ratio [17]: 16.3; ECL signal/blank ratio [18]: 1.4; ECL signal/blank ratio [19]: 49.2; ECL signal/blank ratio [20]: 2.8
Fab VH3-23_IGHD2-21*01>3_IGHJ6*01 H100E/S108P/Y113G Y114W & V2-13_IGLJ2*01 (Fab, V domains shown, Tested as Fab made in E. coli (VH-CH1 with His and Flag tags; lambda CL); also called EPG Y114W) VH: not shown VL: SSELTQDPAVSVALGQTVRITCQGDSLRSYYASWYQQKPGQAPVLVIYGKNNRPSGIPDRFSGSSSGNTASLTITGAQAEDEADYYCNSRDSSGNHLVVFGGGTKLTVL	9.3	6.6	2.2	1.6	1.1	16.7	–	1.9	–
Fab VH3-23_IGHD2-21*01>3_IGHJ6*01 H100E/S108P/Y113G Y114E & V2-13_IGLJ2*01 (Fab, V domains shown, Tested as Fab made in E. coli (VH-CH1 with His and Flag tags; lambda CL); also called EPG Y114E) VH: not shown VL: SSELTQDPAVSVALGQTVRITCQGDSLRSYYASWYQQKPGQAPVLVIYGKNNRPSGIPDRFSGSSSGNTASLTITGAQAEDEADYYCNSRDSSGNHLVVFGGGTKLTVL	7.4	6.8	–	1.5	1.5	13.9	69.2	2.2	–
Fab VH3-23_IGHD2-21*01>3_IGHJ6*01 H100E/S108P/Y113G Y112R & V2-13_IGLJ2*01 (Fab, V domains shown, Tested as Fab made in E. coli (VH-CH1 with His and Flag tags from plasmid A; lambda CL from plasmid E); also called EPG Y112R) VH: not shown VL: SSELTQDPAVSVALGQTVRITCQGDSLRSYYASWYQQKPGQAPVLVIYGKNNRPSGIPDRFSGSSSGNTASLTITGAQAEDEADYYCNSRDSSGNHLVVFGGGTKLTVL	5.9	–	2.7	1.6	1.5	30	85.1	2.6	–
Fab VH1-46_IGHD6-6*01_IGHJ1*01 E100A & L6_IGKJ1*01 (Fab, V domains shown, Heavy chain CDR3 alanine mutant of the parental Fab; Fab format as the parent (CH1 with His6/Flag tags, kappa CL)) VH: QVQLVQSGAEVKKPGASVKVSCKASGYTFTSYYMHWVRQAPGQGLEWMGIINPSGGSTSYAQKFQGRVTMTRDTSTSTVYMELSSLRSEDTAVYYCAREAYSSSSAEYFQHWGQGTLVTVSS VL: not shown	–	–	–	–	–	–	–	–	Signal/Noise [21]: 0.9
Fab VH1-46_IGHD6-6*01_IGHJ1*01 S102A & L6_IGKJ1*01 (Fab, V domains shown, Heavy chain CDR3 alanine mutant of the parental Fab; Fab format as the parent (CH1 with His6/Flag tags, kappa CL)) VH: QVQLVQSGAEVKKPGASVKVSCKASGYTFTSYYMHWVRQAPGQGLEWMGIINPSGGSTSYAQKFQGRVTMTRDTSTSTVYMELSSLRSEDTAVYYCAREEYASSSAEYFQHWGQGTLVTVSS VL: not shown	–	–	–	–	–	–	–	–	Signal/Noise [21]: 5.6
Fab VH1-46_IGHD6-6*01_IGHJ1*01 H111A & L6_IGKJ1*01 (Fab, V domains shown, Heavy chain CDR3 alanine mutant of the parental Fab; Fab format as the parent (CH1 with His6/Flag tags, kappa CL)) VH: QVQLVQSGAEVKKPGASVKVSCKASGYTFTSYYMHWVRQAPGQGLEWMGIINPSGGSTSYAQKFQGRVTMTRDTSTSTVYMELSSLRSEDTAVYYCAREEYSSSSAEYFQAWGQGTLVTVSS VL: not shown	–	–	–	–	–	–	–	–	Signal/Noise [21]: 2.4
